For 20 molecules, Kd, binding result and IC50 results are on record in patent US20060193821, “Aptamers to the human IL-12 cytokine family and their use as autoimmune disease therapeutics” (published 2006).

In data set [1] the target is T1, IL-23 (human, p19/p40 heterodimer) (Homo sapiens, UniProt Q9NPF7;P29460 SEQ:20-189,SEQ:23-328). Description: filter; 1X SHMCK, 1 mM Mg, 1 mM Ca, 0.1 mg/mL tRNA, RT. The following applies: tags: R&D Systems, carrier free; label: 5'-32P. How it is done: (§1) Monitoring Progress of rRfY Selection. Dot blot binding assays were performed throughout the selections to monitor the protein binding affinity of the pools. Trace ³²P-labeled RNA was combined with a dilution series of h-IL-23 and incubated at room temperature for 30 minutes in 1×SHMCK (20 mM Hepes, 120 mM NaCl, 5 mM KCl, 1 mM MgCl₂, 1 mM CaCl₂, pH 7.4) plus 0.1 mg/mL tRNA for a final volume of 20 μL. The binding reactions were analyzed by nitrocellulose filtration using a Minifold I dot-blot, 96-well vacuum filtration manifold (Schleicher & Schuell, Keene, N.H.). A three-layer filtration medium was used, consisting (from top to bottom) of Protran nitrocellulose (Schleicher & Schuell), Hybond-P nylon (Amersham Biosciences) and GB002 gel blot paper (Schleicher & Schuell). RNA that is bound to protein is captured on the nitrocellulose filter, whereas the non-protein bound RNA is captured on the nylon filter. The gel blot paper was included simply as a supporting medium for the other filters. Following filtration, the filter layers were separated, dried and exposed on a phosphor screen (Amersham Biosciences, Piscataway, N.J.) and quantified using a Storm 860 Phosphorimager® blot imaging system (Amersham Biosciences).
T1 sequence (Q9NPF7 20-189, chain 1 of 2): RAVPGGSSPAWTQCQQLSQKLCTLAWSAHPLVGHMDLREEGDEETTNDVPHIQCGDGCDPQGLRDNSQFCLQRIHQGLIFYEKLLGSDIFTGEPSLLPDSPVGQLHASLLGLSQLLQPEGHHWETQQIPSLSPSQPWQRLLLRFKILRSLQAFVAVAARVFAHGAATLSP
T1 sequence (P29460 23-328, chain 2 of 2): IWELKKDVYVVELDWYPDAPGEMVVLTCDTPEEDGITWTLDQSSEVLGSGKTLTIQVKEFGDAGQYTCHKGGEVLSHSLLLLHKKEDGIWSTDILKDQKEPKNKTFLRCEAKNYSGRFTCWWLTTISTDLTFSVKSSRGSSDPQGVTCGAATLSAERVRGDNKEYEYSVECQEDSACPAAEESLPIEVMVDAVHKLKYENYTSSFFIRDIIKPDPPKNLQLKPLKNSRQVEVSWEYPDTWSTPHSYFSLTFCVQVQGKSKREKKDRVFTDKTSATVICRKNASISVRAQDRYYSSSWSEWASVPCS
(§2) When a significant positive ratio of binding of RNA in the presence of h-IL-23 versus in the absence of h-IL-23 was seen, the pools were cloned using a TOPO TA cloning kit (Invitrogen, Carlsbad, Calif.) according to the manufacturer's instructions. For the h-IL-23 and X-IL-23 selections, the Round 8 pool templates were cloned, and 32 individual clones from each selections were assayed in a 1-point dot blot screen (+/−75 nM h-IL-23, as well as a separate screen at +/−75 nM h-IL-12). For the PN-IL-23 selection, the Round 10 pool was cloned and sequenced, and 8 unique clones were assayed for protein binding in a 1-point dot blot screen (+/−200 nM h-IL-23 and a separate screen at +/−200 nM h-IL-12). Subsequently, the Round 10 PN-IL-23 pool was re-cloned for further sequences, as well as the R12 PN-IL-23 pool, and the clones were assayed for protein binding in a 1 point do blot screen (+/−100 nM h-IL-23 or +/−200 nM h-IL-12).

Data set [2] has as its target IL-12 (human, p35/p40 heterodimer) (Homo sapiens, UniProt P29459;P29460 SEQ:57-253,SEQ:23-328). In words: filter; no significant binding; 1X SHMCK, 0.1 mg/mL tRNA. The following applies: label: 5'-32P. The protocol:
as §1, §2

The target of data set [3] is T2, IL-23 (mouse, p19/p40 heterodimer) (Mus musculus, UniProt Q9EQ14;P43432 SEQ:22-196,SEQ:23-335).
T2 sequence 1: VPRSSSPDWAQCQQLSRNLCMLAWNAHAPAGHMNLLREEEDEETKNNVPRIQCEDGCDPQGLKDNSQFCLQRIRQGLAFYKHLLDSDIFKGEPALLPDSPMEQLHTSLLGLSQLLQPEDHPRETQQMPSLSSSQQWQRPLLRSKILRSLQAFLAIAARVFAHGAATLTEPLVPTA
T2 sequence 2: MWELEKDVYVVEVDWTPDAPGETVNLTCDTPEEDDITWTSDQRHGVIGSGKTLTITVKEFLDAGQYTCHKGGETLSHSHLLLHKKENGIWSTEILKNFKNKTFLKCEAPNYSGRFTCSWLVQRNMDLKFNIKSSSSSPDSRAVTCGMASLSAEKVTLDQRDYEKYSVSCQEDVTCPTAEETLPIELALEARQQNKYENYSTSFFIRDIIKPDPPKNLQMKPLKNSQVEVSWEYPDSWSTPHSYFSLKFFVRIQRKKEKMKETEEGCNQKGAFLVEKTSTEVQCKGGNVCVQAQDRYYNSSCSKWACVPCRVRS
In words: cell_activity; TransAM STAT3. The settings on record: tags: isolated in-house. How it is done: In summary, the cell-based assay was conducted by isolating the peripheral blood mononuclear cells (PBMCs) from whole blood using a Histopaque gradient (Sigma, St. Louis, Mo.). The PBMCs were cultured for 3 to 5 days at 37° C./5% CO₂ in Peripheral Blood Medium (Sigma) which contains PHA, supplemented with IL-2 (100 units/mL) (R&D Systems, Minneapolis, Minn.), to generate PHA Blasts. To test IL-23 aptamers, the PHA Blasts were washed twice with 1×PBS, then serum starved for four hours in RPMI, 0.20% FBS. After serum starvation, approximately 2 million cells were aliquotted into appropriately labeled eppendorf tubes. hIL-23 at a final constant concentration of 3 ng/mL (R&D Systems, Minneapolis, Minn.) was combined with a dilution series of various IL-23 aptamers as described in Example 1, and the cytokine/aptamer mixture was added to the aliquotted cells in a final volume of 100 μl and incubated at 37° C. for 10-12 minutes. The incubation reaction was stopped by adding 1 mL of ice-cold PBS with 1.5 mM Na₃VO₄. Cell lysates were made using the lysis buffer provided by the TransAM™ STAT 3 assay following the manufacturer's instructions. FIG. 20 depicts a flow summary of the protocol used for the cell based assay.
The protocol used was identical to that previously described except mouse IL-23 was used to induce STAT 3 activation in PHA Blasts at a concentration of 30 ng/mL, instead of using human IL-23 at a concentration of 3 ng/mL.

In data set [4] the target is T1, IL-23 (human, p19/p40 heterodimer). In words: filter; no binding. The following applies: tags: R&D Systems, carrier free. An excerpt: The fraction aptamer bound vs. [IL-23] was used to calculate the KD by fitting the following equation to the data: Fraction aptamer bound=amplitude*([IL-23]/(KD+[IL-23]))+background binding.
Table 25 below summarizes the minimized sequences and the parent clone from which they were derived, and Table 26 summarizes the binding characterization from direct binding assays (+/−tRNA) and competition binding assays for the minimized constructs tested.

Data set [5] has the same target. In words: filter; 1X PBS, tRNA, ssDNA, BSA, 30 min RT. The settings on record: tags: R&D Systems, carrier free; label: 32P.

IL-12 (human, p35/p40 heterodimer), sequence (P29459 23-219, chain 1 of 2): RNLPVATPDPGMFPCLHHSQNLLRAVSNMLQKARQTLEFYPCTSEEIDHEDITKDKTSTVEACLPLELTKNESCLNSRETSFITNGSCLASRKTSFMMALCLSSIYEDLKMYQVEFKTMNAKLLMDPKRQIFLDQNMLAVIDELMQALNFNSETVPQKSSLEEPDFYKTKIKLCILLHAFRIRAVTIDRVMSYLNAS
IL-12 (human, p35/p40 heterodimer), sequence (P29460 23-328, chain 2 of 2): as the sequence (P29460 23-328, chain 2 of 2) above

B1: AMX84-B10 (ssRNA)
RNA: GGGAAAAGCGAAUCAUACACAAGAAGUGCUUCAUGCGGCAAACUGCAUGACGUCGAAUAGAUAUGCUCCGCCAGAGACCAACCGAGAA
modifications: 2'-F all C and U (rRfY)
Broadly, the Kd is the equilibrium constant for the complex coming apart. Read a high Kd as lower affinity. Regarding B1, the Kd in data set [1] stood at 21.8 nM. For the same molecule, in data set [2], the binding result was “no binding”.

By IC50 is commonly meant the concentration that gives 50% inhibition. The low end stands for greater potency in that assay, the high end for weaker potency in that assay. Consider GGGCACUCAGCCACAGCUCGGUGGCUUAAUAUCUAUGUGAACGUGCCC (ssRNA, 2'-F C,U) [ARC1633 minimer], for which, in data set [3], it took 7 nM to reach half-maximal inhibition (IC50).

B2: AMX86-D6 (ssRNA)
RNA: GGGAAAAGCGAAUCAUACACAAGAUUAGGCGUCGUGACAAUAACUGGUCCACGAGCAUGUCAGUGCUCCGCCAGAGACCAACCGAGAA
modifications: 2'-F all C and U (rRfY)
The molecule B2 gave a Kd in data set [1] of 25 nM. Besides, the binding result in data set [2] was “no binding”. On to GGCAAGGUAAUUGGGAAGUGUGGGCUGGG (mixed, 2'-deoxy A and G, 2'-OMe C and U (dRmY)) [ARC894], for which the binding result in data set [4] (label: 5'-32P) is given as “no binding”. In the case of GGCGGUACGGGGAGUGUGGGUUGGG (mixed, deoxy A,G; 2'-OMe C,U) [ARC1171], in data set [4], the binding result is recorded as “no binding”.

B3: dRmY clone SEQ 93 (mixed)
RNA: GGGAGAGGAGAGAACGUUCUACGUAACGGGGUGGGAGGGGCGAACAACUUGACGCUGUCGAUCGAUCGAUCGAUG
modifications: 2'-deoxy A and G, 2'-OMe C and U (dRmY)
In the case of B3, the Kd in data set [5] was determined as 186 nM. This lies in the sub-micromolar range.

B4: ARC1628 (ssRNA)
RNA: GGAGCGCACUCAGCCACAGGUGGCUUAAUACUGUAAAGACGUGCGCGCAGAGGGAUUUUCGACCUCUCUGCUAGC
modifications: 2'-F C,U
Take B4: the half-inhibitory concentration (IC50) in data set [3] came to 37 nM. With ACAGGCAAGGUAAUUGGGUAGUGAGGGCUGGGUGU (mixed, deoxy A,G; 2'-OMe C,U) [ARC896], in data set [4], the binding result is “no binding”.

B5: ARC1633 (ssRNA)
RNA: GGAGCGCACUCAGCCACAGCUCGGUGGCUUAAUAUCUAUGUGAACGUGCGCAACAGCUUUCGACCUCUCUGCUAGC
modifications: 2'-F C,U
Turning to B5, in data set [3], the IC50 stood at 31 nM. This lies in the double-digit nanomolar range.

B6: dRmY clone SEQ 95 (mixed)
RNA: GGGAGAGGAGAGAACGUUCUACGGGCUACGGGGAUGGAGGGUGGGUCCCAGACGCUGUCGAUCGAUCGAUCGAUG
modifications: 2'-deoxy A and G, 2'-OMe C and U (dRmY)
For B6, in data set [5], the Kd was found to be 433 nM.

B7: ARC1632 (ssRNA)
RNA: GGAGCGCACUCAGCCACCGGCUUAAUAUCCAAUAGGAACGUUCGCUCUGAGCAGGCGUUUCGACCUCUCUGCUAGC
modifications: 2'-F C,U
On to B7, for which, in data set [3], the IC50 worked out at 18 nM.

B8: AMX84-A10 (ssRNA)
RNA: GGGAAAAGCGAAUCAUACACAAGAAGUUUUUUGUGCUCUGAGUACUCAGCGUCCGUAAGGGAUAUGCUCCGCCAGAGACCAACCGAGAA
modifications: 2'-F all C and U (rRfY)
In the case of B8, the Kd in data set [1] was found to be 22.3 nM. In addition, in data set [2], the binding result is on record as “no binding”. In the case of GGGCACUCAGCCACAGGUGGCUUAAUACUGUAAAGACGUGCCC (ssRNA, 2'-F C,U) [ARC1739 (ARC1628 minimer)], in data set [3], the half-inhibitory concentration (IC50) was 18 nM. The molecule GGGCACUCAGCCACCUUGGGCUUAAUACCUAUCGGAUGUGCCC (ssRNA, 2'-F C,U) [ARC1634 minimer] showed an IC50 in data set [3] of 26 nM. The IC50 values of the last two molecules are within 1.5-fold of each other.

B9: AMX84-F11 (ssRNA)
RNA: GGGAAAAGCGAAUCAUACACAAGAUGUGCUUGAGUUAAAUCUCAUCGUCCCCGUUUGGGGAUAUGCUCCGCCAGAGACCAACCGAGAA
modifications: 2'-F all C and U (rRfY)
In the case of B9, in data set [1], the equilibrium dissociation constant (Kd) worked out at 16.6 nM. In addition, in data set [2], the binding result is reported as “no binding”. As to GGCGGUACGGGGGGAGUGGGCUGGG (mixed, deoxy A,G; 2'-OMe C,U) [ARC1170], the binding result in data set [4] is “no binding”.

B10: ARC1634 (ssRNA)
RNA: GGAGCGCACUCAGCCACCUUGGGCUUAAUACCUAUCGGAUGUGCGCCUAGCACGGAAUUUCGACCUCUCUGCUAGC
modifications: 2'-F C,U
For the molecule B10, the IC50 in data set [3] turned out to be 9 nM. That is a single-digit nanomolar value.

B11: AMX86-D5 (ssRNA)
RNA: GGGAAAAGCGAAUCAUACACAAGAGAGGUAUGUGGUUUUGCGGAGCAACUCGUGUCAGCGGUCAGCUCCGCCAGAGACCAACCGAGAA
modifications: 2'-F all C and U (rRfY)
B11: the affinity in data set [1], expressed as Kd, was 27.4 nM. In data set [2], the binding result is on record as “no binding”. Turning to GGCGGUUACGGGGGAUGCGGGUGGG (mixed, 2'-deoxy A and G, 2'-OMe C and U (dRmY)) [ARC981], the binding result in data set [4] (label: 5'-32P) is listed as “no binding”.

B12: dRmY clone SEQ 96 (mixed)
RNA: GGGAGAGGAGAGAACGUUCUACACGGGGUGGGAGGGGCGAGUCGCAUGGAUGCGCUGUCGAUCGAUCGAUCGAUG
modifications: 2'-deoxy A and G, 2'-OMe C and U (dRmY)
Take B12: the Kd in data set [5] is 210 nM.
